Measured values published in US7247438.

Target: T1, purified, recombinant Yama/caspase-3, P42574
T1 chain: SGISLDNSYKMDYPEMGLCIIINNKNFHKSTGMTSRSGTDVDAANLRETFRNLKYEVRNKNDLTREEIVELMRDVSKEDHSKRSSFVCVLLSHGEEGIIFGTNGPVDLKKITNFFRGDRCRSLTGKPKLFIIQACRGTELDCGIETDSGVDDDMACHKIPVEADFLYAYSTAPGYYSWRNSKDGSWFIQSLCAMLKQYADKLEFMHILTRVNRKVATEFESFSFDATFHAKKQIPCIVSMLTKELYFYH
Assay: recombinant enzyme labelled with biotinylated inhibitor, blot
Details: remark: other sources report otherwise

B1: biotin-YVADamk (peptide)
peptide: YVAD
modifications: not checked
With B1 the fold more enzyme needed for detection was 100 times.
